Assay results from paper PMC7596504, “Molecular mechanism of the MORC4 ATPase activation” (Nature Communications, 2020).
Where no end group is shown, it is not given here. Me3 = trimethyl

B3: MORC4 ATPaseCW cassette (aa 29-486) (domain or fragment, human, UniProt Q8TE76 29-486, looked up)
chain: GIRLSTMSPRYLQSNSSSHTRPFSAIAELLDNAVDPDVSARTVFIDVEEVKNKSCLTFTDDGCGMTPHKLHRMLSFGFTDKVIKKSQCPIGVFGNGFKSGSMRLGKDALVFTKNGGTLTVGLLSQTYLECVQAQAVIVPIVPFNQQNKKMIITEDSLPSLEAILNYSIFNRENDLLAQFDAIPGKKGTRVLIWNIRRNKNGKSELDFDTDQYDILVSDFDTEEKMTGGVTSELPETEYSLRAFCGILYMKPRMKIFLRQKKVTTQMIAKSLANVEYDTYKPTFTNKQVRITFGFSCKNSNQFGIMMYHNNRLIKSFEKVGCQVKPTRGEGVGVIGVIECNFLKPAYNKQDFEYTKEYRLTINALAQKLNAYWKEKTSQDNFETSTVARPIPKVPDQTWVQCDECLKWRKLPGKIDPSMLPARWFCYYNSHPKYRRCSVPEEQELTDEDLCLSKAKKQE
notes: ATPase domain and CW domain of human MORC4, aa 29-486, cloned into pDEST15; Homodimer in the crystal with AMPPNP and Mg2+; source: E. coli Rosetta2 (DE3) pLysS or BL21 (DE3) RIL, purified (glutathione agarose, GST tag cleaved, SEC)

What was measured:
[1] = target: T1, MORC4 CW domain (aa 417-475) (human, UniProt Q8TE76 417-475); assay: other fluorescence titration; tryptophan fluorescence, 25 °C; 0.5-1 µM ATPaseCW or CW in 20 mM Tris pH 6.8, 100 mM NaCl, 2 mM DTT, increasing histone peptide; settings: both partners purified
T1 construct: CW-type zinc finger domain of human MORC4, aa 417-475, cloned into pGEX 6p-1; Uniformly 15N-labelled in the NMR experiments; unlabelled protein was further purified by size exclusion chromatography; also called WT MORC4 CW domain; source: E. coli Rosetta2 (DE3) pLysS or BL21 (DE3) RIL, purified (glutathione agarose, GST tag cleaved)
T1 sequence (looked up): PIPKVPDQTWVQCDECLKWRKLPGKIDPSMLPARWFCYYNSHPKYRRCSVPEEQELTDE

[2] = target: B3; assay: as above; settings: both partners purified
[3] = target: T2, MORC4 CW domain K460A/R462A/R463A (human, UniProt Q8TE76 417-475, K460A | R462A | R463A); assay: NMR titration; 1H,15N HSQC of 15N-labelled CWKRR titrated with H3K4me3 peptide; 20 mM Tris-HCl pH 6.8, 150 mM NaCl, 2 mM DTT; settings: both partners purified
T2 construct: CW-type zinc finger domain of human MORC4, aa 417-475, triple mutant; Uniformly 15N-labelled in the NMR experiment; also called CWKRR; MORC4 CWKRR; source: E. coli, grown and purified as wild-type protein (glutathione agarose, GST tag cleaved)
T2 sequence (looked up): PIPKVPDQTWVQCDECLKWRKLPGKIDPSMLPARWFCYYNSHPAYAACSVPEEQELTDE

[4] = target: B3; assay: other fluorescence titration; tryptophan fluorescence, 25 °C; ATPaseCW in the presence of 601 DNA (ATPaseCW:601 DNA complex), increasing histone peptide; settings: both partners purified
[5] = target: the molecule itself; assay: crystal structure; ATPaseCW (aa 29-486) with AMPPNP and Mg2+, 2.9 Å; crystallised after incubation with H3K4me3 peptide and 2 mM AMPPNP

B1: histone H3K4me3 peptide (aa 1-12 of H3) (peptide, UniProt P68431 2-13, looked up)
peptide: ARTK(Me3)QTARKSTG
notes: N-terminal tail of histone H3, aa 1-12
B1 was tested. Which Kd [1] did it give?
Its Kd is 112 nM.

And the Kd [2]?
The Kd was 180 nM.

Does B1 bind [3]?
Result: binds

And the Kd [4]?
The Kd was 40 nM.

B2: unmodified histone H3 peptide (aa 1-12 of H3) (peptide, UniProt P68431 2-13, looked up)
peptide: ARTKQTARKSTG
notes: N-terminal tail of histone H3, aa 1-12; also called H3K4; unmodified H3 peptide
B2 was tested. Which Kd [1] did it give?
The Kd was 2700 nM.

Does B3 bind [5]?
Result: binds
